Laboratory results taken from the DeepSol protein solubility set.

experiment: soluble on expression in E. coli; label from the status in PepcDB or PDB records

Sequence | soluble on expression in E. coli
MSLATPSFGNSSPQLTFTHVANFMNDAAADVSAVDAKQLAQIRQFLKANKTNLIESLNTIRQNVTSSGDHNKLRSTIANLLQINVDNDPFFAQSEDLSHAVEFFMSERSSRLHIVYSLLVNPDIDLETYSFIDNDRFNVVGKLISIISSVIQNYDIITASSLAHDYNNDQDMFTIVSLVQLKKFSDLKFILQILQILNLMILNTKVPVDIVNQWFLQYQNQFVEFCRNINSTDKSIDTSSLQLYKFQNFQDLSYLSETLISRISSLFTITTILILGLNTSIAQFDIQSPLYMDTETFDTVNSALENDVATNIVNEDPIFHPMIHYSWSFILYYRRALQSSESFDDSDITKFALFAESHDVLQKLNTLSEILSFDPVYTTVITVFLEFSLNFIPITASTSRVFAKIISKAPEQFIENFLTNDTFEKKLSIIKAKLPLLNESLIPLINLALIDTEFANFELKDICSFAVTKSSLNDLDYDLIADTITNSSSSSDIIVPDLIELKSDLLVAPPLENENSNCLLSIPKSTKGKILTIKQQQQQQQNGQQPPTTSNLIIFLYKFNGWSLVGRILQNLLHSYMEKGTQLDDLQHELMISIIKLVTNVVDPKTSIEKSSEILSYLSNSLDTSASTINGASIIQVIFEIFEISLQRKDYTSIVQCCEFMTMLTPNYLHLVSSYLNKSDLLDKYGKTGLSNMILGSVELSTGDYTFTIQLLKLTKVFIRESLSLKNIHISKRSKIDIINKLILHAIHIFESYYNWKYNNFLQKFEIAFHLTLIFYDVLHDVFTINPHQKDQLIISSSANKLLQLFLTPMDSIDLAPNTLTNILISPLNTTTKILGDKILGNLYSKVMNNSFKLCTLLISIRGSNRDLKPSNLEKLLFINSSKLVDVYTLPSYVHFKVQIIELLSYLVEAPWNDDYPFLLSFLGEAKSMAFLKEVLSDLSSPVQDWNLLRSLYIFFTTLLESKQDGLSILFLTGQFASNKKINDESSIDKKSSILTVLQKNSLLLDSTPEEVSCKLLETITYVLNTWTNSKIFIKDPKFVNSLLAKLKDSKKLEGHHHHHH | not soluble
SEDCCMLPYYTAQSSPAMGMFNTSMGKLQRQLYKGEYTIFRYAPMFESDFIQISKRGEVIDVHNRARMVTMGIVRTSPCLTLPDVMLLARPAAVCDNARCGPATQKRESPPAEILELTRLLPLMFVKITIHNSVKKQLHLKLATGRSFYLQLCPPSDASEDLFVHWENLVYILRPPVEAYSDTRAILAGNTLDSSVLEEVQRSPVGYAMKFCEEKEQFRISRLHMNAEMFGSTYCDYTIEI | soluble
MTVSREVELEGHIIDSGMMQSCFGIIMDLGGSFSVQKFDIGRHKDEESYARMLVEADDEAQLQSIVHELHQHGVNPSDPKDATLVPAPDDQVVPHGFYSTTNHPLEHHHHHH | not soluble
MANRIQEIALSDKNLGSKIKAVYKTERDIYVNGAPVRGRVFTASSEKQRDFEIFVPHLRNSQMLNGREEVKLIDPVARINVKRNNIGNSRSIDMVVYAKRLEVVGGNK | not soluble
MGSDKIHHHHHHMKLNLRSLEAFRETMLSGSATAAAGRMGLTQPAVSRLIAQLEQEVGFELFYRERGRLSPTPEALIIYDEIDLAFGGLERVDALARDIAAFNTGLLKIVAPPSLSESVLSTILPRFMARFPKVRIAIESRSTATARAMVANRTVDCGFVKLPLDRSDISTVTLSTSETVCVLPDTHPLTAHEVLTPELLRGEPLVLLGAGTWTRRQIDDAFRERGVRPDVRVETHTVGSACALAAGGLGVAIVNALLADNFARPGVAIRVFRPQILHEYAFMTSALAPMNRLAAAFLEEAQTFFREQAR | not soluble
MSYRQMLIHRCDIYHEAAQAPSAGRFGIPADRLQPVISYPDTPDEQDVPCYFTEKTQQLIQEEPDQTVYHSFLVHFPLSADIRVNDKIIWENHKYILKLPKRIRHHHWEVVAVRDESLLEHHHHHH | soluble
MSLKIIAFYLPQFHQIKENDRWWGKGFTEWTNTKSAQPLFSGHYQPREPYQDFYYDLTTPSVRKWQAEIAKAYGIYGFCYYHYWFKGKRLLETPFNEVLKMKEPDFPFCLSWANEPWTKSWDGLDKHILMPQDYGDISDWKEHFDYLLQAFQDERYIYIDDKPLFIIYRPGHIPDCEKMLNYWNALARENGLKGIYFAETLNSFPLPNINGFDASIQFEPFYTIAHDSSSDINKVIYDSDMQLNVWDYDKVWMYILQRSLPKKKTFPGAFVDWDNTARRKNANSSIFVGSTPEKFTIYLSKQIHRTYSFYNSEFLFINAWNEWAEGTYLEPDKKYGFSYLEGVKNAIDRGMKAYKKDEGHHHHHH | soluble
VASKAIFYHAGCPVCVSAEQAVANAIDPSKYTVEIVHLGTDKARIAEAEKAGVKSVPALVIDGAAFHINFGAGIDDLKGS | soluble
MEFIGDTRIVIINPLGAKKICRLTFEQIKVIYQEVKTHFENYRIIFTGLPQDLLTIPILEIETLPFDEFIYTVALTKYSDFVISVDTALVHIAAAYHKPTLAFYPNSRTPEYPSHLIWSPNHHKSIQIVSPTYTVKDIDTETLTNSVKRLEHHHHHH | not soluble
PERESVRHKQPKSKEKKNAEKHIPHGIKCFVHAPEKYEWRWMGDEYVHALTPNVLEMVECLKANGIRLHTAGITVGMQKGKDLVPAPALALSTEMDDHSFFDMEFSRDEALSYLARQSVTTMPDLPLGFVLATFRRRPLGFLKNLGTRANNLYPQDWRIRNLETSEDCMEAKD | not soluble
MSLNKAMQEVNLEDSLKFFEQAANQPAALLKVQTQWWEQQLQIWQKVVLESKIQSIMEAEKGDKRFSHEAWQQDPFFNFIKQSYLLFSKTYLDTINAIEGLDEKAKERILFFSRQMINALSPSNFIATNPELLRLTLEKNGENLIAGLEQLKEDVASSADILKIRMTNNNAFRLGEDVANTPGEVVFKNEVFELIQYKPLTEQVAVTPLLIVPPFINKYYILDLREKNSMVRWLVEQGHSVFMISWRNPGAAQAQLNFEDYVLEGVVKAVNAIESITGQEQINAAGYCIGGTVLATTIAYYAAKRMKKRIKTASFFTTLLDFSQPGEVGAYINDTIIRAIELQNNAKGYMDGRSLSVTFSLLRENSLYWNYYVDNYLKGQSPVDFDLLYWNSDSTNVAGACHNFLLRELYLENKLVQDKGVKVGGVWIDLDKIKVPSYFISTKEDHIALWQGTYRGALRTGGNKTFVLGESGHIAGIVNHPDKRKYGYWVNDTLDDSAEDWLETAQHREGSWWVHWNEWLNGFADGSKVEPYPLGNADYPVLYSAPGEYVKQVLPIQEEGHHHHHH | soluble
MAHHHHHHMEQLNDDDERENLYFVDHGRPKYKHTDLLAMLRDAQSAIIRFSEENRDIIADAVNFASTSERANTLRKLEEAYLGIVKVQAPMVRCSRPAFRKLCRLWGTDVSYTHMIMADSFTCSDAARHADFSMYAGEERLVAQIASCSGPVAAEAATLLAPYCDAIDLNCGCPQRWIIKEGLGSALLQKPEVVADMVRCIHNGLSGGVDLPCVVKMRVSNDVGRSVDFARQCEAAGCGWITVHGRTPSCSAHAPVRLDAIRTIRECVSVPVVANGGVNNPQTALKTSLTTGAGAVMSATGLLANPACFYVPREGELLLFAPQRRGVDVALEASMGPCRGADEGASTAGSENSAWLKGLPGCPVEVISDFIRLSCVTDLASKATSMHLLKMGGNYLSPTERVFLAQMHSSFSVVSALQQLGLYTQDGKFRVVESVT | soluble
MNWYELYWQRITPLHLFLWPVSQLLILFQSVRRFLYRRAILTSIHLPVPIIIIDSITTDSPVKTSLIIQIANILKAAGLRPGIISRGYPDNHRPPTRVTISSHPHLTGEKSLLLTYHLRETCPVWIGYDRIETAKALLNAHKECNVLICDDGLQDLRLQRDFEAVIVDTSVINSGNGLIMPAGPLRDSFARLKHTDAVILAGHQRRIPDITDEIRTIHTRPQKEHFFNLSWPELTADAAGLAGKRIHAIVCDPDTQNFLDNLEFLKLTVTPRVFPENHHFIATDFQSDEAEIILIPEEDAVKCLSLHDDRIWVLQQEYRVDPGLREIILKKLREKFMDPKLLDILVCPLCKGSLIYKKDRLELICKADRLAYPIRDGIPVMLEDEARKLPDEEEIKLEHHHHHH | not soluble
MYQAIAQAIIKSIMADEYPTKLPTEKVLMAQYNASRNTIRKAIDVVFRHGLLRRVQGSGNFIIKQPQNTKKVLNLSIGFDQSAMVDGGPLVSKVVTFDKVTADETLAQQGNIALGDEVYRVVRLRYLNDILYDLEESYFPRTVVPFLSSESVQHSIFAFLREAYGITGSTTENYVHQVRVDAQRAELIGCPDGDKTLCLEAINYLANGTVFNFSRTFFVYPDLELYYHTENIDLQN | not soluble
